Results on 8 molecules are retold here after patent US20120316071A1 (published 2012).

Experiment [1] deals with T1, rHuman CD44/Fc Chimera, CF (human, UniProt P16070 21-220).
T1 construct: Bought from R&D Systems; not shown: Fc of the bought chimera
As to the kind of experiment: ECL Multispot (MSD) assay; antigen spotted on plate, Fab in solution.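 Also: fab bound 1 h at 20 °C, detected by TAG-labelled antibody electrochemiluminescence, signal relative to each well's blank, ratio of 4 or more marks a hit.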

Experiment [2] addresses T2, rHuman Notch-1/Fc Chimera, CF (human, UniProt P46531 19-526).
T2 construct: Bought from R&D Systems; not shown: Fc of the bought chimera
The experiment is described as above.

In experiment [3] the target is T3, rHuman ErbB2/Fc Chimera, CF (human, UniProt P04626 23-652).
T3 construct: Bought from R&D Systems; also called human epidermal growth factor 2 receptor; not shown: Fc of the bought chimera
The description is as above.

For experiment [4], the target named is T4, Recombinant Human DLL4 (human, UniProt Q9NR61 27-524).
T4 construct: Bought from R&D Systems; also called delta-like protein 4; rHuman DLL4
Described as above.

The target in experiment [5] is T5, rHuman EGF R/Fc Chimera, CF (human, UniProt P00533 25-645).
T5 construct: Bought from R&D Systems; also called epidermal growth factor receptor; not shown: Fc of the bought chimera
The experiment is described as above.

For experiment [6], the target named is T6, rHuman Erythropoietin R/Fc Chimera, CF (human, UniProt P19235 25-250).
T6 construct: Bought from R&D Systems; also called EPO R; EPO R/Fc; not shown: Fc of the bought chimera
T6 sequence (looked up): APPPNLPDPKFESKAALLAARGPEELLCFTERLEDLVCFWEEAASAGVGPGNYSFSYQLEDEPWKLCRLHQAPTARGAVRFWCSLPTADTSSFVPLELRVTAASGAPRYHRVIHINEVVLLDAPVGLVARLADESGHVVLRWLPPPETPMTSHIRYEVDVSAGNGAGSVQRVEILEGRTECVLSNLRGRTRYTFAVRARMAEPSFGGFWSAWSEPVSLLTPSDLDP
Described as above.

Experiment [7] deals with T7, rHuman IGF-1 sR, (IGF-1 sR), CF (human, UniProt P08069 31-932).
T7 construct: Bought from R&D Systems; also called insulin-like growth factor-1 soluble receptor
The experiment is described as above.

For experiment [8], the target named is T8, rHuman HGF R/c-MET/Fc Chimera, CF (human, UniProt P08581 25-932).
T8 construct: Bought from R&D Systems; also called HGF R/Fc; hepatocyte growth factor receptor; not shown: Fc of the bought chimera
Described as above.

In experiment [9] the target is T9, Recombinant Human DLL4 (human, UniProt Q9NR61 27-524).
T9 construct: Bought recombinant human DLL4 (R&D Systems 1506-D4/CF); also called delta-like protein 4; rHuman DLL4
As to the kind of experiment: ELISA on plate-coated DLL4, Fab at 0.74 nM (3-fold serial dilution). In general terms: ELISA stands for enzyme-linked immunosorbent assay.

For experiment [10], the target named is T9, Recombinant Human DLL4. As to the kind of experiment: ELISA on plate-coated DLL4, Fab at 2.22 nM (3-fold serial dilution).
For experiment [11], the target named is T9, Recombinant Human DLL4. As to the kind of experiment: ECL (MSD) binding assay, Fab on immobilised recombinant human DLL4; Fab concentration not given in the table.
Experiment [12] concerns the target T9, Recombinant Human DLL4. The experiment is described as follows: ELISA on plate-coated DLL4, Fab at 6.67 nM (3-fold serial dilution).
The target in experiment [13] is T9, Recombinant Human DLL4. The experiment is described as follows: ELISA on plate-coated DLL4, Fab at 20 nM (3-fold serial dilution).
For experiment [14], the target named is T10, Recombinant Human DLL4 (delta-like protein 4) (human, UniProt Q9NR61 27-529).
T10 construct: Bought recombinant human DLL4 (R&D Systems Cat#1506-D4/CF); also called rHuman DLL4; Delta-like 4
As to the kind of experiment: ELISA, DLL4 coated on plate, Fab in solution, absorbance at 450 nm.

Experiment [15] concerns the target T10, Recombinant Human DLL4 (delta-like …). The experiment is described as follows: 96-well plate ECL binding assay, DLL4 immobilised, Fab in solution.

Positions count from the first letter of the chain named. Names may count otherwise.

T8 sequence (P08581 25-932, change not shown): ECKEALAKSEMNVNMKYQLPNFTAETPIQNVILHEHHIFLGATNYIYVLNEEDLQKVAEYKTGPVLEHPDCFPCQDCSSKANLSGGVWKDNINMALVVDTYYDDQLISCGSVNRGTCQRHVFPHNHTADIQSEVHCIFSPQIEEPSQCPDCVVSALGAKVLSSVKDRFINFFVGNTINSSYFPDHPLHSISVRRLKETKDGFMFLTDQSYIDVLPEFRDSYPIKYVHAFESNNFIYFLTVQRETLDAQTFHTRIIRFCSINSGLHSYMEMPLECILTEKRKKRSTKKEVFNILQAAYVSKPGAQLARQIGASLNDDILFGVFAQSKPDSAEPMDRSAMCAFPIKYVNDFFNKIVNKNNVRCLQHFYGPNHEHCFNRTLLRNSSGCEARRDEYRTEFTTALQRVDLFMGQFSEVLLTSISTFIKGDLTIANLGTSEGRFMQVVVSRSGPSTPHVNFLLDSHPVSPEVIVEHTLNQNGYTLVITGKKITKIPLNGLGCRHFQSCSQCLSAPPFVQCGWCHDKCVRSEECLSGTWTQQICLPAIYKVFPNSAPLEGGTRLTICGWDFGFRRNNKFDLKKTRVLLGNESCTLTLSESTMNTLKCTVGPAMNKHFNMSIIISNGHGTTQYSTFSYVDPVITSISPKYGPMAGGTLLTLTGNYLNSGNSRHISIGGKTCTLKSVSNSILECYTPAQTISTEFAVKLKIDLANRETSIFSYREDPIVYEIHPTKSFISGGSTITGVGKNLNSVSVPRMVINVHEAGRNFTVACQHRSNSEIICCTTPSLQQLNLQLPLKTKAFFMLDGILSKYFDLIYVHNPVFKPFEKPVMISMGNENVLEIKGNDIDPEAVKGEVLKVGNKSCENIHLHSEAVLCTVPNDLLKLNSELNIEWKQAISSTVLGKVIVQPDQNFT

B1: Fab VH1-46_IGHD6-6*01_IGHJ1*01 S102A/S103P/S104F/H111F (APFF) & L6_IGKJ1*01 S28Q (Fab, V domains shown)
VH: QVQLVQSGAEVKKPGASVKVSCKASGYTFTSYYMHWVRQAPGQGLEWMGIINPSGGSTSYAQKFQGRVTMTRDTSTSTVYMELSSLRSEDTAVYYCAREEYAPFSAEYFQFWGQGTLVTVSS
VL: EIVLTQSPATLSLSPGERATLSCRASQQVSSYLAWYQQKPGQAPRLLIYDASNRATGIPARFSGSGSGTDFTLTISSLEPEDFAVYYCQQRSNWPPWTFGQGTKVEIKR
notes: Fab made in E. coli; the variable domains were cloned into Plasmid A (CH1, His and Flag tags) and Plasmid C (kappa CL); also called APFF / S28Q
Take B1: the ECL signal in experiment [1] was determined as 420; in [2] it was 331; in [3], 345; in the experiment with Recombinant Human DLL4 [4], 133000; in experiment [5], 517; in experiment [6], 437. The ECL signal in [7] worked out at 404; in experiment [8] it was 380.

B2: Fab VH1-46_IGHD6-6*01_IGHJ1*01 S102A/S103P/S104F/H111F N52L/S54T/G56H & L6_IGKJ1*01 S28N/S30D/S31H S52L/A55G (Fab, V domains shown)
VH: B1 VH with N52L, S54T, G56H
VL: B1 VL with Q28N, S30D, S31H, S52L, A55G
notes: Fab expressed in E. coli: VH joined to CH1 from Plasmid A (His6 and Flag tags), VL joined to kappa CL from Plasmid C; also called H:APFF LTH & L:NDH LG
Regarding B2, the ELISA signal in the experiment with Recombinant Human DLL4 [9] worked out at 0.368; with Recombinant Human DLL4 [10], 0.594; in the experiment with Recombinant Human DLL4 [12], 0.88; with Recombinant Human DLL4 [13] it was 1.01. Moreover, in the experiment with Recombinant Human DLL4 [11], the “ECL signal” value was 9010.

B3: Fab VH1-46_IGHD6-6*01_IGHJ1*01 S102A/S103P/S104F/H111F & L6_IGKJ1*01 S28N/S30D/S31H (Fab, V domains shown)
VH: B1 VH
VL: B1 VL with Q28N, S30D, S31H
notes: Parental template of this NNK series; Fab with CH1 (plasmid A, His6 and Flag tags) and kappa CL (plasmid C); also called H:APFF & L:NDH; NDH
Consider B3, for which, in experiment [14], the “ELISA (Avgerage signal-noise)” value worked out at 0.165. For the same molecule, the “ECL signal” value in experiment [15] worked out at 18700.

B4: Fab VH1-46_IGHD6-6*01_IGHJ1*01 S102A/S103P/S104F/H111F & L6_IGKJ1*01 S28N/S30D/S31H S52M (Fab, V domains shown)
VH: B1 VH
VL: B1 VL with Q28N, S30D, S31H, S52M
notes: Fab with CH1 (plasmid A, His6 and Flag tags) and kappa CL (plasmid C); also called H:APFF & L:NDH S52M
B4: the “ELISA (Avgerage signal-noise)” value in experiment [14] was found to be 0.185. For the same molecule, in [15], the “ECL signal” value turned out to be 19500.

B5: Fab VH1-46_IGHD6-6*01_IGHJ1*01 S102A/S103P/S104F/H111F I51A/N52L/S54T/G56H & L6_IGKJ1*01 S28N/S30D/S31H S52L/A55G (Fab, V domains shown)
VH: B1 VH with I51A, N52L, S54T, G56H
VL: B1 VL with Q28N, S30D, S31H, S52L, A55G
notes: Fab expressed in E. coli: VH joined to CH1 from Plasmid A (His6 and Flag tags), VL joined to kappa CL from Plasmid C; also called H:APFF ALTH & L:NDH LG
For the molecule B5, the ELISA signal with Recombinant Human DLL4 [9] came to 0.028; with Recombinant Human DLL4 [10] it was 0.069; with Recombinant Human DLL4 [12], 0.212; with Recombinant Human DLL4 [13], 0.39. In addition, in the experiment with Recombinant Human DLL4 [11], the “ECL signal” value was determined as 1760.

B6: Fab VH1-46_IGHD6-6*01_IGHJ1*01 S102A/S103P/S104F/H111F & L6_IGKJ1*01 S28N/S30D/S31H N53M (Fab, V domains shown)
VH: B1 VH
VL: B1 VL with Q28N, S30D, S31H, N53M
notes: Fab with CH1 (plasmid A, His6 and Flag tags) and kappa CL (plasmid C); also called H:APFF & L:NDH N53M
Consider B6, for which, in experiment [14], the “ELISA (Avgerage signal-noise)” value amounted to 0.162. Besides, in experiment [15], the “ECL signal” value is 17800.

B7: Fab VH1-46_IGHD6-6*01_IGHJ1*01 S102A/S103P/S104F/H111F & L6_IGKJ1*01 S28N/S30D/S31H N53H (Fab, V domains shown)
VH: B1 VH
VL: B1 VL with Q28N, S30D, S31H, N53H
notes: Fab with CH1 (plasmid A, His6 and Flag tags) and kappa CL (plasmid C); also called H:APFF & L:NDH N53H
For the molecule B7, the “ELISA (Avgerage signal-noise)” value in experiment [14] worked out at 0.23. In experiment [15], the “ECL signal” value was 20100.

B8: Fab VH1-46_IGHD6-6*01_IGHJ1*01 S102A/S103P/S104F/H111F & L6_IGKJ1*01 S28N/S30D/S31H S52T (Fab, V domains shown)
VH: B1 VH
VL: B1 VL with Q28N, S30D, S31H, S52T
notes: Fab with CH1 (plasmid A, His6 and Flag tags) and kappa CL (plasmid C); also called H:APFF & L:NDH S52T
As for B8, the “ELISA (Avgerage signal-noise)” value in [14] turned out to be 0.263. Also, the “ECL signal” value in experiment [15] was found to be 20100.
